Reference: patent US20260274955A1 (JANUX THERAPEUTICS, published 2026)

B1: Phage-1107 (peptide)
peptide: TCAAGVHFGWPLCF
B2: Phage-1112 (peptide)
peptide: TCSAGATYKWPVCL
B3: Phage-1111 (peptide)
peptide: TCAAGAHYTWPTCL
B4: Phage-1105 (peptide)
peptide: PCAAGAMWAWPYCL
B5: Phage-1113 (peptide)
peptide: SCSAGATYEWPYCF
B6: Phage-1176 (peptide)
peptide: SCSAGATYQWPYCF
B7: Phage-141 (peptide)
peptide: YCDGHRGEYLQKCL
B8: Phage-91 (peptide)
peptide: YCAGHLPEYMPHCI
B9: Phage-1115 (peptide)
peptide: LCAAGATYPWPICL
B10: Phage-67 (peptide)
peptide: YCEGHTAEYMQKCL
B11: Phage-1104 (peptide)
peptide: TCAAGAHYLWPHCL
B12: Phage-1108 (peptide)
peptide: TCAAGATYTWPTCF
B13: Phage-98 (peptide)
peptide: YCAGHSPEHMWKCL
B14: Phage-1109 (peptide)
peptide: TCAAGASWEWPACL
B15: Phage-1118 (peptide)
peptide: SCSAGAMYQWPLCF
B16: Phage-1187 (peptide)
peptide: TCSAGATYSWPSCF
B17: Phage-1102 (peptide)
peptide: TCAAGATYSWPDCF
B18: Phage-1125 (peptide)
peptide: TCSAGATYTWPSCF
B19: Phage-88 (peptide)
peptide: YCDGHEPQYMLKCL
B20: Phage-95 (peptide)
peptide: YCDGHTLEYMWKCL
B21: Phage-1100 (peptide)
peptide: SCAAGAHYKWPVCI
B22: Phage-99 (peptide)
peptide: YCEGHSEEYISKCL
B23: Phage-149 (peptide)
peptide: YCEGHTVEYMAKCL
B24: Phage-1103 (peptide)
peptide: QCAAGAMWTWPVCF
B25: Phage-1179 (peptide)
peptide: RCAAGAMWTWPACF
B26: Phage-1116 (peptide)
peptide: SCSAGALWKWPVCF
B27: Phage-1110 (peptide)
peptide: TCAAGAMYQWPECF
B28: Phage-1114 (peptide)
peptide: TCAAGANWHWPWCF
B29: Phage-1101 (peptide)
peptide: ICAAGFIWSWPACF
B30: Phage-90 (peptide)
peptide: YCEGHTMEYMWKCL
B31: Phage-148 (peptide)
peptide: YCDGHAPEYMEKCM
B32: Phage-145 (peptide)
peptide: YCDGHIEEYRAKCL
B33: Phage-92 (peptide)
peptide: YCDGHSPQYIEKCL
B34: Phage-1117 (peptide)
peptide: TCSAGFSYKWPWCW
B35: Phage-70 (peptide)
peptide: YCDGHSWEYIGKCL

How the values were obtained:
[1] = biological target: anti-CD28 Fab (SEQ ID NOs: 202, 203); test: phage ELISA, Fab on plate, CD28 antigen as competitor;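 also: wells pre-incubated with CD28 antigen in blocking buffer (reference: blocking buffer only) before adding crude clonal phage supernatant, bound phage read with HRP-coupled anti-M13 antibody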
Chain of anti-CD28 Fab (SEQ ID NOs: 202, 203) (VH, as listed by the source, chain 1 of 2): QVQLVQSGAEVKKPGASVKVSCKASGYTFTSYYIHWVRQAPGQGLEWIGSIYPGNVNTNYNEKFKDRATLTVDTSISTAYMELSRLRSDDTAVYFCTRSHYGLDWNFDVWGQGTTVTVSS
Chain of anti-CD28 Fab (SEQ ID NOs: 202, 203) (VL, as listed by the source, chain 2 of 2): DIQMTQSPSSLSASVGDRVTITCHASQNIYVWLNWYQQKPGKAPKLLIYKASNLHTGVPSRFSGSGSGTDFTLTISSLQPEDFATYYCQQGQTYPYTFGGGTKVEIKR
Procedure: (§1) After panning, phage infected bacteria were plated out and colonies picked into 96 well blocks. Clonal phage was then amplified and separated from bacterial cells via centrifugation.
(§2) Clonal phage were harvested as crude supernatants and screened via standard ELISAs. […] Prior to the addition of clonal phage, wells were incubated with blocking buffer and CD28 antigen or blocking buffer alone. Without washing or aspirating, clonal phage supernatants were then added to the wells and incubated for a short time. Wells were then washed followed by detection of bound phage using a horse radish conjugated anti-M13 antibody. Clonal phage of interest were then sent for sequence analysis.

[2] = biological target: anti-CD28 Fab (SEQ ID NOs: 202, 203); test: phage ELISA, Fab on plate;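 also: ELISA of crude clonal phage supernatants on the plate, wells preloaded with CD28 antigen or only blocking buffer, captured phage read out via HRP-linked anti-M13 antibody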
Procedure: as §1, §2

[3] = biological target: Anti-CD28 Fab (SEQ ID NOs: 202, 203); test: phage binding ELISA on captured Fab;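 also: clonal phage supernatants added briefly to wells pre-incubated with CD28 antigen or with blocking buffer only, then washed, bound phage read by ELISA using HRP-coupled anti-M13 antibody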
Chain of Anti-CD28 Fab (SEQ ID NOs: 202, 203) (VH, as listed by the source, chain 1 of 2): as the sequence (VH, as listed by the source, chain 1 of 2) above
Chain of Anti-CD28 Fab (SEQ ID NOs: 202, 203) (VL, as listed by the source, chain 2 of 2): as the sequence (VL, as listed by the source, chain 2 of 2) above
Procedure: (§3) Clonal phage were harvested as crude supernatants and screened via standard ELISAs. […] Prior to the addition of clonal phage, wells were incubated with blocking buffer and CD28 antigen or blocking buffer alone. Without washing or aspirating, clonal phage supernatants were then added to the wells and incubated for a short time. Wells were then washed followed by detection of bound phage using a horse radish conjugated anti-M13 antibody.

[4] = biological target: Anti-CD28 Fab (SEQ ID NOs: 202, 203); test: phage binding ELISA on captured Fab; competitor CD28 antigen;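 as to Anti-CD28 Fab signal in the presence of CD28: wells pretreated with CD28 antigen in blocking buffer or buffer only, then clonal phage supernatants added briefly without washing, bound phage detected via horseradish-conjugated anti-M13 antibody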
Procedure: as §3

Binder	Anti-CD28 Fab signal in the presence of CD28 [1]	Anti-CD28 Fab signal [2]	Anti-CD28 Fab signal [3]	Anti-CD28 Fab signal in the presence of CD28 [4]
B1	0.07	1.49		
B2	0.06	1.47		
B3	0.07	1.47		
B4	0.05	1.49		
B5	0.06	1.47		
B6	0.06	1.26		
B7			2.22	0.09
B8			2.31	0.09
B9	0.08	1.46		
B10			2.38	0.08
B11	0.12	1.5		
B12	0.05	1.48		
B13			2.3	0.06
B14	0.08	1.48		
B15	0.09	1.44		
B16	0.09	1.21		
B17	0.06	1.51		
B18	0.06	1.42		

Binder	Anti-CD28 Fab signal in the presence of CD28 [1]	Anti-CD28 Fab signal [2]	Anti-CD28 Fab signal [3]	Anti-CD28 Fab signal in the presence of CD28 [4]
B19			2.32	0.12
B20			2.31	0.13
B21	0.06	1.51		
B22			2.3	0.08
B23			2.2	0.08
B24	0.07	1.5		
B25	0.06	1.25		
B26	0.07	1.45		
B27	0.06	1.48		
B28	0.15	1.46		
B29	0.08	1.51		
B30			2.31	0.07
B31			2.21	0.07
B32			2.21	0.07
B33			2.31	0.07
B34	0.06	1.45		
B35			2.37	0.07
